This is an account of results in PMC5855017, “Label-Free Aptasensor for Lysozyme Detection Using Electrochemical Impedance Spectroscopy”.

This data set has as its target Lysozyme (UniProt P00698 19-147). The data set can be described thus: electrochemical impedance spectroscopy (label-free aptasensor); PEG-blocked electrode; 0.25-5 uM lysozyme; LOD 1.67 uM, slope 0.090 uM-1 (not Kd); Room temperature incubation; buffers listed: PBS (187 mM NaCl, 2.7 mM KCl, 8.1 mM Na2HPO4, 1.76 mM KH2PO4, pH 7.0) and BB (1 mM MgCl2, 2.7 mM KCl, 140 mM NaCl). The settings on record: protein: commercial.

Sequence of Lysozyme (P00698 19-147): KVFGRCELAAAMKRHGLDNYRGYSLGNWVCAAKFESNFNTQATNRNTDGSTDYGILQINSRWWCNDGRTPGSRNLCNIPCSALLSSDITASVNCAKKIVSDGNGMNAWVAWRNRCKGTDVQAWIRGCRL

B1: AptLys (lysozyme aptamer) (ssDNA)
DNA: ATCTACGAATTCATCAGGGCTAAAGAGTGCAGAGTTACTTAG
modifications: 5' aminolink C6, immobilized via amide bond on graphite-epoxy electrode
For B1, the binding result is reported as “binds”.
